Measured values taken from patent JP2018158894A (dated 2018).

Target: T1, ヒンジ領域組換えタンパク質 (LGR6 hinge region partial protein, amino acids 446-567, with Trx-, S- and His-tags) (Homo sapiens (Human), UniProt Q9HBX8 446-567)
T1 construct: Used as immunogen and as ELISA antigen; also called LGR6のヒンジ領域部分タンパク質; hinge region recombinant protein; not shown: N-terminal Trx-, S- and His-tag from the pET32b vector; C-terminal His-tag from the pET32b vector
T1 sequence: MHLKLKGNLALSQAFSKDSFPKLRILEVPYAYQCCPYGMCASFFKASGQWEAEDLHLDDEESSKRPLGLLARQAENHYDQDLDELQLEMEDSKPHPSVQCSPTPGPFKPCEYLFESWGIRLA
Assay: Ag-ELISA, hybridoma culture supernatant on coated protein

B1: m164抗体 (anti-LGR6 mouse monoclonal antibody produced by hybridoma clone 164) (antibody, V domains shown)
VH: EVQLQQSGPELVKPGASVKISCKTSGYTFTEYTMHWVKQSHGKSLEWIGGINPYNRVSSYNQRFKGKATLTVDKSSSTAYMELRSLTSEDSAVYYCARRYDVFDSWGQGTTLTVSS
VL: DIVMSQSPSSLAVSVGEKVSMSCKSSQSLLYSSNQKNYLAWYQQKPGQSPKLLISWASTRESGVPARFTGSGSGTDFTLTISSVRAEDLAVYYCQQHFNYPYTFGGGAKLEMK
notes: Tested as the mouse antibody from the hybridoma (culture supernatant or Protein G purified); the primers used were for mouse IgG1 CH and mouse kappa light chain; also called m164; LGR6抗体m164
binding result: binds
